Reference: the RNAGym collection of RNA variant scans (doi:10.1073/pnas.2313332121)

B1: TPR t1 (parent)
chain: GACCAAUCUGCCCUCAGAGCUCGAGAACAUCUUCGGAUGCAGAGGAGGCAGGCUUCGGUGGCGCGAUAGCGCCAACGUCCUCAACCUCCAAUGCAUCCCACCACAUGAUGAUGCCUGAAGAGCCUUGGUUUUUUG

Variants of: B1
Assay: polymerase ribozyme fitness, log enrichment relative to wild type (log ratio); higher = more active; in vitro selection for triplet polymerase activity
In short: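 Both subunits of a heterodimeric triplet polymerase ribozyme were given their own mutant library, built by PCR and transcribed. Each library was annealed with a biotinylated primer, the partner subunit and triplets, incubated frozen at −7 °C, and its extended constructs gel-excised, captured on streptavidin beads and amplified by RT-PCR, all in one round done in triplicate. Fitness is the logarithm of genotype enrichment relative to wild-type enrichment, with replicates averaged by inverse-variance weighting. That logarithm is base 2, and Illumina-sequenced genotypes needed ≥10 input reads and ≥1 read per output.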

Point of comparison: G10A A18U C70G G77A U87A C115A, “polymerase ribozyme fitness (log ratio)” value -7.14. Against it:
- G10A C13A U112A — higher, 0.644
- G10A C72U C89G G93U — higher, -2.93
- G10A G17A C82A — higher, -3.46
- G10A A43G — higher, -1.53
- G10A C20U C97G C123U — higher, -3.15
- G10A C22G G61U A95U — higher, -3.63
- G10A G47U A83G — higher, -2.7
- G10A G71C U81A A100C — higher, -4.69
- G10A A24G — higher, -1.53
- G10A G58C C123A — higher, 1.18
- G10A C94A C97U U106A — higher, -0.642
- G10A C12U U14C C56G G63C G117U U129A — higher, -3.92
- G10A C13U U55A C76U C97A U116G — higher, -6.1
- G10A U38G — higher, 0.0174
- G10A C56G C82G C115G A121U — higher, -0.467
- G10A C11U C40U C97A G120A — higher, -4.4
- G10A A37C A84C A95G — higher, -0.834
- G10A U38C G45A C79U — higher, -1.29
- G10A G69U U78C A95G C115U — higher, 0.452
- U9G U92A U96G U109A — higher, -5.59
- G10A G48U G52A G77U — higher, -2.41
- G10A C12G C40A C115U A119G G120C U131A — higher, -0.621
- G10A C76U U78A C85A U125G — higher, -1.57
- G10A G19U — higher, -3.62
- G10A C13U C15U C79A A100U C124G U131G — higher, -0.0361
- G10A C22A C79A G120U C123G — higher, -5.58
- G10A C13U — higher, 0.219
- G10A C13U C22G G35C C101A U131G — higher, -4.66
- G10A C13A C70U — higher, -1.36
- G10A C40A A50U U78A — higher, -4.41
- G10A G122A — higher, 0.549
- G10A A74C U78A A111G — higher, -0.232
- G10A G17U A18U C115U C123G U130A — higher, -4.27
- G10A C22G G47A G60A — higher, -3.93
- G10A A50G C64U C115G — higher, -3.37
- G10A C34U G77A — higher, -5.24
- G10A C13A C64A U112A — lower, -7.66
- G10A C72A U87G C102U — higher, -1.09
- G10A C70U C79U C82G G120C G128U — higher, -2.34
- G10A C11U C89A — higher, -2.04
- G10A A41C G61U U92A U133C — higher, -0.847
- G10A C12A A29G G52U C56A G57C — higher, -2.57
- G10A G120U — higher, 1.07
- G10A C88A C123U — higher, 1.69
- G10A A41C G52U C79U C82G U130G — higher, -2.72
- G10A G58C — higher, 0.631
- G10A A18U A118U — higher, -1.34
- G10A A41U — higher, -0.89
- G10A C11G A27U G60A U78G C82A G93A A105G U109G — higher, -6.59
- G10A G19A A74U — higher, -3.32
- G10A C82A C102U — higher, -1.68
- G10A G42U C72A C76G C115A — higher, -3.07
- G10A C97G — higher, -3.95
- G10A U81A G110A U129A — higher, -5.01
- G10A C53A C72U — higher, 0.298
- G10A A43G C76U C89U A111C — higher, -4
- G10A G44A A46U G48C — higher, -1.66
- G10A G17A — higher, -3.1
- G10A C86U U112A — higher, 1.32
- G10A C13A G39C U133A — higher, -1.46
- G10A U38G G48C C79A — higher, -4.53
- U9G U109A G120C — higher, -4.55
- G10A U21G G44C C80U C123G — higher, -2.04
- G10A C72G U96A C104U — higher, -0.61
- G10A A41C C53G U133C — higher, -1.29
- G10A A74G A119U — higher, -0.71
- G10A G35A — higher, -3.71
- G10A G44U U92G C115A — higher, -3.73
- G10A C64U A103U C123U — higher, -3.16
- G10A C13A C22A A46G C49A G122A — higher, -6.21
- G10A U54G G71C C102U A111U U129G — higher, -5.93
- G10A G48C C64A G113A A119G C124G — higher, -6.38
- G10A C72U — higher, -0.532
- G10A C72A — higher, 0.427
- G10A C11A A18C G42C G44A C101A — higher, -4.26
- U9G U92G C115G U132C — higher, -0.718
- G10A A74G A90U G107U C115U — lower, -7.83
- G10A C31U G61C C82A C94G C124U — higher, -5.7
- G10A C62U — higher, 0.124
- G10A C62A — higher, -0.929
- G10A G17A U106A — higher, -3.51
- G10A A29U G110A — higher, -2.97
